Test results from US20220204580A1 (AstraZeneca / MedImmune, published 2022).
Each block holds one binder with its values, some of them ahead of it. Numbered stars: 1 amine (or outer) side, 2 acyl side, 3 side chain; on linkers, the order of the positions; unused ones are H or OH. Bridge positions count the residues as written; N and C are the ends. Square brackets hold non-standard residues; d marks the D form. Side chains are listed from the residue outwards. Ends that are not written are not given here. * marks the point of attachment. C18 diacid = O=C(O)CCCCCCCCCCCCCCCCC(=O)*; γGlu = O=C(O)[C@H](CCC(=O)[*:2])N[*:1]; Aib = CC(C)(N)C(=O)O

Assays:
[1] = target: T1, human amylin receptor (calcitonin receptor co-expressed with receptor activity modifying protein, RAMP3) (human, UniProt P30988 25-474; O60896 24-148); assay: cell-based or functional assay
T1 sequence (looked up) 1: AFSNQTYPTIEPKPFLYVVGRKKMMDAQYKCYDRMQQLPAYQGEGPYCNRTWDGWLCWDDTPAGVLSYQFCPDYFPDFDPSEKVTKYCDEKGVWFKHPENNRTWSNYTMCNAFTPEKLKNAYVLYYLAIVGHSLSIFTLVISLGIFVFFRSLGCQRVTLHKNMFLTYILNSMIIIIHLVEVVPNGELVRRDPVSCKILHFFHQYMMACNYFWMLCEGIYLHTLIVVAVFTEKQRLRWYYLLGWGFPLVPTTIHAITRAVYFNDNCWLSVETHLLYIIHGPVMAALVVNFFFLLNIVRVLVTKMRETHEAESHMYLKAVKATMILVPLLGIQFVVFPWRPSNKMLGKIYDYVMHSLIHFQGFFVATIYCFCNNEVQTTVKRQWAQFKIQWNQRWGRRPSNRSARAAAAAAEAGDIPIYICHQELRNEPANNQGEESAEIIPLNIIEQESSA
T1 sequence (looked up) 2: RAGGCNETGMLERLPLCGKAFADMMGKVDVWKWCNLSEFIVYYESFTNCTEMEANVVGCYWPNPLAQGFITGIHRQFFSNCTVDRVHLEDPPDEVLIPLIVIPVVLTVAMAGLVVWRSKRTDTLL

[2] = target: T2, human calcitonin receptor (human, UniProt P30988 25-474); assay: cell-based or functional assay
T2 sequence (looked up): T1 sequence (looked up) 1

B1: Peptide 92 (SEQ ID NO: 92) (peptide)
peptide: K([γGlu-γGlu-C18 diacid])CNTATCATQRLANFLRHSS[Aib]NFGPILPPTNVGS[Aib]TY-NH2
modifications: disulfide 2-7; N-terminus assumed
SMILES: CC[C@H](C)[C@H](NC(=O)[C@@H]1CCCN1C(=O)CNC(=O)[C@H](Cc1ccccc1)NC(=O)[C@H](CC(N)=O)NC(=O)C(C)(C)NC(=O)[C@H](CO)NC(=O)[C@H](CO)NC(=O)[C@H](Cc1c[nH]cn1)NC(=O)[C@H](CCCNC(=N)N)NC(=O)[C@H](CC(C)C)NC(=O)[C@H](Cc1ccccc1)NC(=O)[C@H](CC(N)=O)NC(=O)[C@H](C)NC(=O)[C@H](CC(C)C)NC(=O)[C@H](CCCNC(=N)N)NC(=O)[C@H](CCC(N)=O)NC(=O)[C@@H](NC(=O)[C@H](C)NC(=O)[C@@H]1CSSC[C@H](NC(=O)[C@@H](N)CCCCNC(=O)CC[C@H](NC(=O)CC[C@H](NC(=O)CCCCCCCCCCCCCCCCC(=O)O)C(=O)O)C(=O)O)C(=O)N[C@@H](CC(N)=O)C(=O)N[C@@H]([C@@H](C)O)C(=O)N[C@@H](C)C(=O)N[C@@H]([C@@H](C)O)C(=O)N1)[C@@H](C)O)C(=O)N[C@@H](CC(C)C)C(=O)N1CCC[C@H]1C(=O)N1CCC[C@H]1C(=O)N[C@H](C(=O)N[C@@H](CC(N)=O)C(=O)N[C@H](C(=O)NCC(=O)N[C@@H](CO)C(=O)NC(C)(C)C(=O)N[C@H](C(=O)N[C@@H](Cc1ccc(O)cc1)C(N)=O)[C@@H](C)O)C(C)C)[C@@H](C)O
EC50 (cAMP production) [1]: 0.341 nM | Ratio (EC50 hCTR / EC50 hAMYR3) [1]: 130 | EC50 (cAMP production) [2]: 44.4 nM

B3: Peptide 90 (SEQ ID NO: 90) (peptide)
peptide: K([γGlu-γGlu-C18 diacid])CNTATCATQRLANFLRHSS[Aib]NFGPILPPT[Aib]VGSNTY-NH2
modifications: disulfide 2-7; N-terminus assumed
SMILES: CC[C@H](C)[C@H](NC(=O)[C@@H]1CCCN1C(=O)CNC(=O)[C@H](Cc1ccccc1)NC(=O)[C@H](CC(N)=O)NC(=O)C(C)(C)NC(=O)[C@H](CO)NC(=O)[C@H](CO)NC(=O)[C@H](Cc1c[nH]cn1)NC(=O)[C@H](CCCNC(=N)N)NC(=O)[C@H](CC(C)C)NC(=O)[C@H](Cc1ccccc1)NC(=O)[C@H](CC(N)=O)NC(=O)[C@H](C)NC(=O)[C@H](CC(C)C)NC(=O)[C@H](CCCNC(=N)N)NC(=O)[C@H](CCC(N)=O)NC(=O)[C@@H](NC(=O)[C@H](C)NC(=O)[C@@H]1CSSC[C@H](NC(=O)[C@@H](N)CCCCNC(=O)CC[C@H](NC(=O)CC[C@H](NC(=O)CCCCCCCCCCCCCCCCC(=O)O)C(=O)O)C(=O)O)C(=O)N[C@@H](CC(N)=O)C(=O)N[C@@H]([C@@H](C)O)C(=O)N[C@@H](C)C(=O)N[C@@H]([C@@H](C)O)C(=O)N1)[C@@H](C)O)C(=O)N[C@@H](CC(C)C)C(=O)N1CCC[C@H]1C(=O)N1CCC[C@H]1C(=O)N[C@H](C(=O)NC(C)(C)C(=O)N[C@H](C(=O)NCC(=O)N[C@@H](CO)C(=O)N[C@@H](CC(N)=O)C(=O)N[C@H](C(=O)N[C@@H](Cc1ccc(O)cc1)C(N)=O)[C@@H](C)O)C(C)C)[C@@H](C)O
EC50 (cAMP production) [1]: 1.06 nM | Ratio (EC50 hCTR / EC50 hAMYR3) [1]: 15 | EC50 (cAMP production) [2]: 15.6 nM

B6: Peptide 91 (SEQ ID NO: 91) (peptide)
peptide: K([γGlu-γGlu-C18 diacid])CNTATCATQRLANFLVHSS[Aib]NFGPILPPTNVGS[Aib]TY-NH2
modifications: disulfide 2-7; N-terminus assumed
SMILES: CC[C@H](C)[C@H](NC(=O)[C@@H]1CCCN1C(=O)CNC(=O)[C@H](Cc1ccccc1)NC(=O)[C@H](CC(N)=O)NC(=O)C(C)(C)NC(=O)[C@H](CO)NC(=O)[C@H](CO)NC(=O)[C@H](Cc1c[nH]cn1)NC(=O)[C@@H](NC(=O)[C@H](CC(C)C)NC(=O)[C@H](Cc1ccccc1)NC(=O)[C@H](CC(N)=O)NC(=O)[C@H](C)NC(=O)[C@H](CC(C)C)NC(=O)[C@H](CCCNC(=N)N)NC(=O)[C@H](CCC(N)=O)NC(=O)[C@@H](NC(=O)[C@H](C)NC(=O)[C@@H]1CSSC[C@H](NC(=O)[C@@H](N)CCCCNC(=O)CC[C@H](NC(=O)CC[C@H](NC(=O)CCCCCCCCCCCCCCCCC(=O)O)C(=O)O)C(=O)O)C(=O)N[C@@H](CC(N)=O)C(=O)N[C@@H]([C@@H](C)O)C(=O)N[C@@H](C)C(=O)N[C@@H]([C@@H](C)O)C(=O)N1)[C@@H](C)O)C(C)C)C(=O)N[C@@H](CC(C)C)C(=O)N1CCC[C@H]1C(=O)N1CCC[C@H]1C(=O)N[C@H](C(=O)N[C@@H](CC(N)=O)C(=O)N[C@H](C(=O)NCC(=O)N[C@@H](CO)C(=O)NC(C)(C)C(=O)N[C@H](C(=O)N[C@@H](Cc1ccc(O)cc1)C(N)=O)[C@@H](C)O)C(C)C)[C@@H](C)O
EC50 (cAMP production) [1]: 0.2 nM | Ratio (EC50 hCTR / EC50 hAMYR3) [1]: 12 | EC50 (cAMP production) [2]: 2.36 nM

Further lines, results first:

EC50 (cAMP production) [1]: 0.556 nM | Ratio (EC50 hCTR / EC50 hAMYR3) [1]: 2 | EC50 (cAMP production) [2]: 0.859 nM
B2: Peptide 96 (SEQ ID NO: 96) (peptide)
peptide: K([γGlu-C18 diacid])KCNTATCATQRLANFL[Aib]HSSNNFGPIL[Aib]PTNVGSNTY-NH2
modifications: disulfide 3-8; N-terminus assumed
SMILES: CC[C@H](C)[C@H](NC(=O)[C@@H]1CCCN1C(=O)CNC(=O)[C@H](Cc1ccccc1)NC(=O)[C@H](CC(N)=O)NC(=O)[C@H](CC(N)=O)NC(=O)[C@H](CO)NC(=O)[C@H](CO)NC(=O)[C@H](Cc1c[nH]cn1)NC(=O)C(C)(C)NC(=O)[C@H](CC(C)C)NC(=O)[C@H](Cc1ccccc1)NC(=O)[C@H](CC(N)=O)NC(=O)[C@H](C)NC(=O)[C@H](CC(C)C)NC(=O)[C@H](CCCNC(=N)N)NC(=O)[C@H](CCC(N)=O)NC(=O)[C@@H](NC(=O)[C@H](C)NC(=O)[C@@H]1CSSC[C@H](NC(=O)[C@H](CCCCN)NC(=O)[C@@H](N)CCCCNC(=O)CC[C@H](NC(=O)CCCCCCCCCCCCCCCCC(=O)O)C(=O)O)C(=O)N[C@@H](CC(N)=O)C(=O)N[C@@H]([C@@H](C)O)C(=O)N[C@@H](C)C(=O)N[C@@H]([C@@H](C)O)C(=O)N1)[C@@H](C)O)C(=O)N[C@@H](CC(C)C)C(=O)NC(C)(C)C(=O)N1CCC[C@H]1C(=O)N[C@H](C(=O)N[C@@H](CC(N)=O)C(=O)N[C@H](C(=O)NCC(=O)N[C@@H](CO)C(=O)N[C@@H](CC(N)=O)C(=O)N[C@H](C(=O)N[C@@H](Cc1ccc(O)cc1)C(N)=O)[C@@H](C)O)C(C)C)[C@@H](C)O

EC50 (cAMP production) [1]: 0.322 nM | Ratio (EC50 hCTR / EC50 hAMYR3) [1]: 6 | EC50 (cAMP production) [2]: 1.9 nM
B4: Peptide 94 (SEQ ID NO: 94) (peptide)
peptide: K([γGlu-C18 diacid])KCNTATCATQRLANFL[Aib]HSSNNFGP[Aib]LPPTNVGSNTY-NH2
modifications: disulfide 3-8; N-terminus assumed
SMILES: CC(C)C[C@H](NC(=O)[C@H](CCCNC(=N)N)NC(=O)[C@H](CCC(N)=O)NC(=O)[C@@H](NC(=O)[C@H](C)NC(=O)[C@@H]1CSSC[C@H](NC(=O)[C@H](CCCCN)NC(=O)[C@@H](N)CCCCNC(=O)CC[C@H](NC(=O)CCCCCCCCCCCCCCCCC(=O)O)C(=O)O)C(=O)N[C@@H](CC(N)=O)C(=O)N[C@@H]([C@@H](C)O)C(=O)N[C@@H](C)C(=O)N[C@@H]([C@@H](C)O)C(=O)N1)[C@@H](C)O)C(=O)N[C@@H](C)C(=O)N[C@@H](CC(N)=O)C(=O)N[C@@H](Cc1ccccc1)C(=O)N[C@@H](CC(C)C)C(=O)NC(C)(C)C(=O)N[C@@H](Cc1c[nH]cn1)C(=O)N[C@@H](CO)C(=O)N[C@@H](CO)C(=O)N[C@@H](CC(N)=O)C(=O)N[C@@H](CC(N)=O)C(=O)N[C@@H](Cc1ccccc1)C(=O)NCC(=O)N1CCC[C@H]1C(=O)NC(C)(C)C(=O)N[C@@H](CC(C)C)C(=O)N1CCC[C@H]1C(=O)N1CCC[C@H]1C(=O)N[C@H](C(=O)N[C@@H](CC(N)=O)C(=O)N[C@H](C(=O)NCC(=O)N[C@@H](CO)C(=O)N[C@@H](CC(N)=O)C(=O)N[C@H](C(=O)N[C@@H](Cc1ccc(O)cc1)C(N)=O)[C@@H](C)O)C(C)C)[C@@H](C)O

EC50 (cAMP production) [1]: 0.691 nM | Ratio (EC50 hCTR / EC50 hAMYR3) [1]: 2 | EC50 (cAMP production) [2]: 1.17 nM
B5: Peptide 95 (SEQ ID NO: 95) (peptide)
peptide: K([γGlu-C18 diacid])KCNTATCATQRLANFL[Aib]HSSNNFGPI[Aib]PPTNVGSNTY-NH2
modifications: disulfide 3-8; N-terminus assumed
SMILES: CC[C@H](C)[C@H](NC(=O)[C@@H]1CCCN1C(=O)CNC(=O)[C@H](Cc1ccccc1)NC(=O)[C@H](CC(N)=O)NC(=O)[C@H](CC(N)=O)NC(=O)[C@H](CO)NC(=O)[C@H](CO)NC(=O)[C@H](Cc1c[nH]cn1)NC(=O)C(C)(C)NC(=O)[C@H](CC(C)C)NC(=O)[C@H](Cc1ccccc1)NC(=O)[C@H](CC(N)=O)NC(=O)[C@H](C)NC(=O)[C@H](CC(C)C)NC(=O)[C@H](CCCNC(=N)N)NC(=O)[C@H](CCC(N)=O)NC(=O)[C@@H](NC(=O)[C@H](C)NC(=O)[C@@H]1CSSC[C@H](NC(=O)[C@H](CCCCN)NC(=O)[C@@H](N)CCCCNC(=O)CC[C@H](NC(=O)CCCCCCCCCCCCCCCCC(=O)O)C(=O)O)C(=O)N[C@@H](CC(N)=O)C(=O)N[C@@H]([C@@H](C)O)C(=O)N[C@@H](C)C(=O)N[C@@H]([C@@H](C)O)C(=O)N1)[C@@H](C)O)C(=O)NC(C)(C)C(=O)N1CCC[C@H]1C(=O)N1CCC[C@H]1C(=O)N[C@H](C(=O)N[C@@H](CC(N)=O)C(=O)N[C@H](C(=O)NCC(=O)N[C@@H](CO)C(=O)N[C@@H](CC(N)=O)C(=O)N[C@H](C(=O)N[C@@H](Cc1ccc(O)cc1)C(N)=O)[C@@H](C)O)C(C)C)[C@@H](C)O
